[ ]: non-standard residue; d: D form.
B1: cyclic nNOS β-hairpin peptide ΔT112 (peptide)
peptide: cyclo(THLETTFGDGTPKTIRVTQ[dP]GQ)
SMILES: CC[C@H](C)[C@@H]1NC(=O)[C@H]([C@@H](C)O)NC(=O)[C@H](CCCCN)NC(=O)[C@@H]2CCCN2C(=O)[C@H]([C@@H](C)O)NC(=O)CNC(=O)[C@H](CC(=O)O)NC(=O)CNC(=O)[C@H](Cc2ccccc2)NC(=O)[C@H]([C@@H](C)O)NC(=O)[C@H]([C@@H](C)O)NC(=O)[C@H](CCC(=O)O)NC(=O)[C@H](CC(C)C)NC(=O)[C@H](Cc2c[nH]cn2)NC(=O)[C@H]([C@@H](C)O)NC(=O)[C@H](CCC(N)=O)NC(=O)CNC(=O)[C@H]2CCCN2C(=O)[C@H](CCC(N)=O)NC(=O)[C@H]([C@@H](C)O)NC(=O)[C@H](C(C)C)NC(=O)[C@H](CCCNC(=N)N)NC1=O
B2: cyclic nNOS β-hairpin peptide ΔT116 (peptide)
peptide: cyclo(THLETTFTGDGPKTIRVTQ[dP]GQ)
SMILES: CC[C@H](C)[C@@H]1NC(=O)[C@H]([C@@H](C)O)NC(=O)[C@H](CCCCN)NC(=O)[C@@H]2CCCN2C(=O)CNC(=O)[C@H](CC(=O)O)NC(=O)CNC(=O)[C@H]([C@@H](C)O)NC(=O)[C@H](Cc2ccccc2)NC(=O)[C@H]([C@@H](C)O)NC(=O)[C@H]([C@@H](C)O)NC(=O)[C@H](CCC(=O)O)NC(=O)[C@H](CC(C)C)NC(=O)[C@H](Cc2c[nH]cn2)NC(=O)[C@H]([C@@H](C)O)NC(=O)[C@H](CCC(N)=O)NC(=O)CNC(=O)[C@H]2CCCN2C(=O)[C@H](CCC(N)=O)NC(=O)[C@H]([C@@H](C)O)NC(=O)[C@H](C(C)C)NC(=O)[C@H](CCCNC(=N)N)NC1=O
B3: cyclic nNOS β-hairpin peptide ΔD114 (peptide)
peptide: cyclo(THLETTFTGGTPKTIRVTQ[dP]GQ)
SMILES: CC[C@H](C)[C@@H]1NC(=O)[C@H]([C@@H](C)O)NC(=O)[C@H](CCCCN)NC(=O)[C@@H]2CCCN2C(=O)[C@H]([C@@H](C)O)NC(=O)CNC(=O)CNC(=O)[C@H]([C@@H](C)O)NC(=O)[C@H](Cc2ccccc2)NC(=O)[C@H]([C@@H](C)O)NC(=O)[C@H]([C@@H](C)O)NC(=O)[C@H](CCC(=O)O)NC(=O)[C@H](CC(C)C)NC(=O)[C@H](Cc2c[nH]cn2)NC(=O)[C@H]([C@@H](C)O)NC(=O)[C@H](CCC(N)=O)NC(=O)CNC(=O)[C@H]2CCCN2C(=O)[C@H](CCC(N)=O)NC(=O)[C@H]([C@@H](C)O)NC(=O)[C@H](C(C)C)NC(=O)[C@H](CCCNC(=N)N)NC1=O
B4: cyclic nNOS β-hairpin peptide T110A (peptide)
peptide: cyclo(THLETAFTGDGTPKTIRVTQ[dP]GQ)
SMILES: CC[C@H](C)[C@@H]1NC(=O)[C@H]([C@@H](C)O)NC(=O)[C@H](CCCCN)NC(=O)[C@@H]2CCCN2C(=O)[C@H]([C@@H](C)O)NC(=O)CNC(=O)[C@H](CC(=O)O)NC(=O)CNC(=O)[C@H]([C@@H](C)O)NC(=O)[C@H](Cc2ccccc2)NC(=O)[C@H](C)NC(=O)[C@H]([C@@H](C)O)NC(=O)[C@H](CCC(=O)O)NC(=O)[C@H](CC(C)C)NC(=O)[C@H](Cc2c[nH]cn2)NC(=O)[C@H]([C@@H](C)O)NC(=O)[C@H](CCC(N)=O)NC(=O)CNC(=O)[C@H]2CCCN2C(=O)[C@H](CCC(N)=O)NC(=O)[C@H]([C@@H](C)O)NC(=O)[C@H](C(C)C)NC(=O)[C@H](CCCNC(=N)N)NC1=O
B5: cyclic nNOS β-hairpin peptide V122A (peptide)
peptide: cyclo(THLETTFTGDGTPKTIRATQ[dP]GQ)
SMILES: CC[C@H](C)[C@@H]1NC(=O)[C@H]([C@@H](C)O)NC(=O)[C@H](CCCCN)NC(=O)[C@@H]2CCCN2C(=O)[C@H]([C@@H](C)O)NC(=O)CNC(=O)[C@H](CC(=O)O)NC(=O)CNC(=O)[C@H]([C@@H](C)O)NC(=O)[C@H](Cc2ccccc2)NC(=O)[C@H]([C@@H](C)O)NC(=O)[C@H]([C@@H](C)O)NC(=O)[C@H](CCC(=O)O)NC(=O)[C@H](CC(C)C)NC(=O)[C@H](Cc2c[nH]cn2)NC(=O)[C@H]([C@@H](C)O)NC(=O)[C@H](CCC(N)=O)NC(=O)CNC(=O)[C@H]2CCCN2C(=O)[C@H](CCC(N)=O)NC(=O)[C@H]([C@@H](C)O)NC(=O)[C@H](C)NC(=O)[C@H](CCCNC(=N)N)NC1=O
B6: cyclic nNOS β-hairpin peptide T116A (peptide)
peptide: cyclo(THLETTFTGDGAPKTIRVTQ[dP]GQ)
SMILES: CC[C@H](C)[C@@H]1NC(=O)[C@H]([C@@H](C)O)NC(=O)[C@H](CCCCN)NC(=O)[C@@H]2CCCN2C(=O)[C@H](C)NC(=O)CNC(=O)[C@H](CC(=O)O)NC(=O)CNC(=O)[C@H]([C@@H](C)O)NC(=O)[C@H](Cc2ccccc2)NC(=O)[C@H]([C@@H](C)O)NC(=O)[C@H]([C@@H](C)O)NC(=O)[C@H](CCC(=O)O)NC(=O)[C@H](CC(C)C)NC(=O)[C@H](Cc2c[nH]cn2)NC(=O)[C@H]([C@@H](C)O)NC(=O)[C@H](CCC(N)=O)NC(=O)CNC(=O)[C@H]2CCCN2C(=O)[C@H](CCC(N)=O)NC(=O)[C@H]([C@@H](C)O)NC(=O)[C@H](C(C)C)NC(=O)[C@H](CCCNC(=N)N)NC1=O
B7: cyclic nNOS β-hairpin peptide T123A (peptide)
peptide: cyclo(THLETTFTGDGTPKTIRVAQ[dP]GQ)
SMILES: CC[C@H](C)[C@@H]1NC(=O)[C@H]([C@@H](C)O)NC(=O)[C@H](CCCCN)NC(=O)[C@@H]2CCCN2C(=O)[C@H]([C@@H](C)O)NC(=O)CNC(=O)[C@H](CC(=O)O)NC(=O)CNC(=O)[C@H]([C@@H](C)O)NC(=O)[C@H](Cc2ccccc2)NC(=O)[C@H]([C@@H](C)O)NC(=O)[C@H]([C@@H](C)O)NC(=O)[C@H](CCC(=O)O)NC(=O)[C@H](CC(C)C)NC(=O)[C@H](Cc2c[nH]cn2)NC(=O)[C@H]([C@@H](C)O)NC(=O)[C@H](CCC(N)=O)NC(=O)CNC(=O)[C@H]2CCCN2C(=O)[C@H](CCC(N)=O)NC(=O)[C@H](C)NC(=O)[C@H](C(C)C)NC(=O)[C@H](CCCNC(=N)N)NC1=O
B8: cyclic nNOS β-hairpin peptide T119A (peptide)
peptide: cyclo(THLETTFTGDGTPKAIRVTQ[dP]GQ)
SMILES: CC[C@H](C)[C@@H]1NC(=O)[C@H](C)NC(=O)[C@H](CCCCN)NC(=O)[C@@H]2CCCN2C(=O)[C@H]([C@@H](C)O)NC(=O)CNC(=O)[C@H](CC(=O)O)NC(=O)CNC(=O)[C@H]([C@@H](C)O)NC(=O)[C@H](Cc2ccccc2)NC(=O)[C@H]([C@@H](C)O)NC(=O)[C@H]([C@@H](C)O)NC(=O)[C@H](CCC(=O)O)NC(=O)[C@H](CC(C)C)NC(=O)[C@H](Cc2c[nH]cn2)NC(=O)[C@H]([C@@H](C)O)NC(=O)[C@H](CCC(N)=O)NC(=O)CNC(=O)[C@H]2CCCN2C(=O)[C@H](CCC(N)=O)NC(=O)[C@H]([C@@H](C)O)NC(=O)[C@H](C(C)C)NC(=O)[C@H](CCCNC(=N)N)NC1=O
B9: cyclic nNOS β-hairpin peptide T112A (peptide)
peptide: cyclo(THLETTFAGDGTPKTIRVTQ[dP]GQ)
SMILES: CC[C@H](C)[C@@H]1NC(=O)[C@H]([C@@H](C)O)NC(=O)[C@H](CCCCN)NC(=O)[C@@H]2CCCN2C(=O)[C@H]([C@@H](C)O)NC(=O)CNC(=O)[C@H](CC(=O)O)NC(=O)CNC(=O)[C@H](C)NC(=O)[C@H](Cc2ccccc2)NC(=O)[C@H]([C@@H](C)O)NC(=O)[C@H]([C@@H](C)O)NC(=O)[C@H](CCC(=O)O)NC(=O)[C@H](CC(C)C)NC(=O)[C@H](Cc2c[nH]cn2)NC(=O)[C@H]([C@@H](C)O)NC(=O)[C@H](CCC(N)=O)NC(=O)CNC(=O)[C@H]2CCCN2C(=O)[C@H](CCC(N)=O)NC(=O)[C@H]([C@@H](C)O)NC(=O)[C@H](C(C)C)NC(=O)[C@H](CCCNC(=N)N)NC1=O

Biological target: T1, (7× His)-PSD-95-PDZ2 wild type (UniProt P78352 160-246)
T1 construct: domain: PDZ2; recombinant from E. coli; also called PSD-95-PDZ2 WT; not shown: 7x His tag
T1 sequence (P78352 160-246): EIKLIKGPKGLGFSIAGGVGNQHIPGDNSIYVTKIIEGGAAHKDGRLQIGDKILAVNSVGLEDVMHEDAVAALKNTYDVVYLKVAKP
Experiment: FP competition

Binder | Ki [µM]
THLETXFTGDGTPKTIRVTQPGQ (cyclic; D-Pro; allo-Thr at 110) [cyclic nNOS β-hairpin peptide AlloT110] | 2.29
XHLETTFTGDGTPKTIRVTQPGQ (cyclic; D-Pro; allo-Thr at 105) [cyclic nNOS β-hairpin peptide AlloT105] | 2.65
THLETTFTGDGTPKXIRVTQPGQ (cyclic; D-Pro; allo-Thr at 119) [cyclic nNOS β-hairpin peptide AlloT119] | 8.99
B1 | 0.69
B2 | 1.43
B3 | 0.7

Biological target: T1, (7× His)-PSD-95-PDZ2 wild type
Experiment: FP competition
Remark: another data set of the same source
Description: Fluorescence polarization (FP). FP assays were performed in a 384-well plate format. Fluorescence polarization was measured using a Safire 2 plate reader. The instrument Z-factor was optimized for each assay. The G-factor was calibrated to an initial milli polarization value of 20. […] Every measurement was performed in NaPI 50 mM, 50 mM NaCl and 1% BSA at pH 7.2, 25° C. […] The curves were done in triplicates. […] The mili polarization (mP) values were plotted as a function of peptide concentration and fitted to a sigmoidal dose-response curve using Prism software 8.0 (GraphPad). The Kᵢ values were calculated according to Nikolovska-Coleska Z. et al.⁴⁰⁻⁴¹

Binder | Ki [µM] | Relative Ki (Ki mut/Ki WT)
B4 | 3.93 | 2.62
B5 | 2.23 | 1.49
B6 | 1.24 | 0.83
B7 | 1.55 | 1.03
B8 | 17 | 11.3
B9 | 1.77 | 1.18

Biological target: T1, (7× His)-PSD-95-PDZ2 wild type
Experiment: FP competition
Remark: another data set of the same source
Description: Fluorescence polarization (FP). FP assays were performed in a 384-well plate format. Fluorescence polarization was measured using a Safire 2 plate reader. The instrument Z-factor was optimized for each assay. The G-factor was calibrated to an initial milli polarization value of 20. […] Every measurement was performed in NaPI 50 mM, 50 mM NaCl and 1% BSA at pH 7.2, 25° C. […] The curves were done in triplicates. […] The mili polarization (mP) values were plotted as a function of peptide concentration and fitted to a sigmoidal dose-response curve using Prism software 8.0 (GraphPad).
Data was collected in triplicates and is presented as mean of Kᵢ values±SEM

Binder | Ki [µM]
XHLETTFTGDGTPKTIRVTQPGQ (cyclic; D-Pro; phospho-Thr 105) [cyclic nNOS β-hairpin peptide pT105] | 2.93

Biological target: T1, (7× His)-PSD-95-PDZ2 wild type
Experiment: FP competition
Remark: another data set of the same source
Description: Fluorescence polarization (FP). FP assays were performed in a 384-well plate format. Fluorescence polarization was measured using a Safire 2 plate reader. The instrument Z-factor was optimized for each assay. The G-factor was calibrated to an initial milli polarization value of 20. […] Every measurement was performed in NaPI 50 mM, 50 mM NaCl and 1% BSA at pH 7.2, 25° C. […] The curves were done in triplicates. Then, the polarization was fitted into a one-site binding model using Prism software 8.0 (GraphPad), from which the Kd can be measured. […] The mili polarization (mP) values were plotted as a function of peptide concentration and fitted to a sigmoidal dose-response curve using Prism software 8.0 (GraphPad). The Kᵢ values were calculated according to Nikolovska-Coleska Z. et al.⁴⁰⁻⁴¹

Binder | Ki [µM]
THLETTFTGDGXPKTIRVTQPGQ (cyclic; D-Pro; N-methyl Thr 116) [cyclic nNOS β-hairpin peptide N-Me-T116] | 0.93
THLETTFTGDGTPKTIRVTXPGQ (cyclic; D-Pro; N-methyl Gln 124) [cyclic nNOS β-hairpin peptide N-Me-Q124] | 2.2
THLETTFTGDGTPKXIRVTQPGQ (cyclic; D-Pro; N-methyl Thr 119) [cyclic nNOS β-hairpin peptide N-Me-T119] | 4.88
THLETTFTXDGTPKTIRVTQPGQ (cyclic; D-Pro; N-methyl Gly 113) [cyclic nNOS β-hairpin peptide N-Me-G113] | 6.19
THLETTFTGDGTPKTIXVTQPGQ (cyclic; D-Pro; N-methyl Arg 121) [cyclic nNOS β-hairpin peptide N-Me-R121] | 0.99
THLETTFTGDGTPKTXRVTQPGQ (cyclic; D-Pro; N-methyl Ile 120) [cyclic nNOS β-hairpin peptide N-Me-I120] | 1.12
THLETTFXGDGTPKTIRVTQPGQ (cyclic; D-Pro; N-methyl Thr 112) [cyclic nNOS β-hairpin peptide N-Me-T112] | 1.08
THLETTFTGDXTPKTIRVTQPGQ (cyclic; D-Pro; N-methyl Gly 115) [cyclic nNOS β-hairpin peptide N-Me-G115] | 0.82
THLETTFTGDGTPKTIRXTQPGQ (cyclic; D-Pro; N-methyl Val 122) [cyclic nNOS β-hairpin peptide N-Me-V122] | 6.17
THLETXFTGDGTPKTIRVTQPGQ (cyclic; D-Pro; N-methyl Thr 110) [cyclic nNOS β-hairpin peptide N-Me-T110] | 1.47
THLETTFTGXGTPKTIRVTQPGQ (cyclic; D-Pro; N-methyl Asp 114) [cyclic nNOS β-hairpin peptide N-Me-D114] | 0.62
